# Measurements reported in the nanobody polyreactivity screen of Harvey et al. (2022).
# Assay: yeast display, Sf9 membrane polyspecificity reagent, FACS + sequencing; frameworks hold sequencing errors
# Procedure, shortened: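 Synthetic nanobody libraries on Saccharomyces cerevisiae BJ5465 were galactose-induced for 36–48 hours, stained 1 hour at 4 °C with 10% biotinylated, detergent-solubilized Sf9 membrane reagent and enriched on streptavidin microbeads. FACS then separated cells into low and high (top ~1%) gates by anti-HA (expression) and streptavidin (reagent binding) fluorescence. Genes were colony-PCR amplified, MiSeq 2 × 250 sequenced and CDR-length filtered. A clone's polyreactivity label is that of its gate of origin.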
row,Sequence,polyreactivity (PSR sort gate)
1,QVQLVESGGGLVQAGGSLRLSCPASGRIFTGYAMGWYRQSPGKERELVASISDSGASTYYADSVKGRFTISRDNAKNTVYLQMNSLKPEDTAVYYCAADWTLDTSYGYYADDFWGQGTQVTVSS,low polyreactivity
2,QVQLVESGGGLVQAGGSLRLSCPASGRTFRWYAMGWYRQAPGKERELVAAISQSGGSTYYAVSVKGRFTISRDNAKNTVYLQMNSLKPEDTAVYYFNAYPPYGGYAYGRGDYWGQGTQVTVSS,high polyreactivity
3,QVQLVESGGGLVQAGGSLRLSCPASGRTIEGYAMGWYRQATGKERELVAAISRRGGSTYYADSVKGRFTISRDNAKNTVFLQMNSLKPEDTAVYYCAARDASTGAVRYYYWGQGTQVTVSS,high polyreactivity
4,QVQLVESGGGLVQAGGSLRLSCPASGRTMVLNMGCYRHAPGKERELVATINSGGSTYYADSVKGRFTISRDNAKNTVYLQMNSLKPEDTAVYYCAVLSSDGKFDYWGQGTQVTVSS,low polyreactivity
5,QVQLVESGGGLVQAGGSLRLSCPASGSIFDYYAMGWYRQPPGKEREMVAAINISGGDTYYADSVKGRFTISRDNAKNTVYLQMNSLKPEDTAVYYCAADWVTWWFSRVGWDYGYWGQGTQVTVSS,low polyreactivity
6,QVQLVESGGGLVQAGGSLRLSCPASGSIFNKNAMGWYRQAPGKERELVAAISSGGSTYYADSVKGRFTISRDNAKNTVYLQMNSLKPEDTAVYYCARGASFYQKFYYWGQGTQVTVSS,high polyreactivity
7,QVQLVESGGGLVQAGGSLRLSCPASGSIFPHYAMGWYRQAPGKERELVAAISRSGTSTYYADSVKGRFTISRDNAKNTVYLQMNSLKPEDTAVYYCNAYQVYTRTYGYWGQGTQVTVSS,high polyreactivity
8,QVQLVESGGGLVQAGGSLRLSCPASGSIFSLNAMGWYRQAPGKERELVAGISWSGGSTYYADSVKGRFTISRDNAKNTVYLQMNSLKPEDTAVYYCAARRYYPYISSGPYYYWGQGTQVTVSS,high polyreactivity
9,QVQLVESGGGLVQAGGSLRLSCPASGSILYYYTMGWYRQAPGKERELVAAITYSGGSSYYADSVKGRFTISRDNAKNTVYLQMNSLKPEDTAVYYCAAAHSNRGVRKWEPLYFWGQRTQVTVSS,low polyreactivity
10,QVQLVESGGGLVQAGGSLRLSCPASGSTFARNAMGWSRQAPGKEREFVASIRWGGGSTYYADSVKARFTISRDNAKNTVYLQMNSLKAEDTAVYYCATRGWSKHLFGGYTQYYYWGQGTQVTVSS,high polyreactivity
11,QVQLVESGGGLVQAGGSLRLSCPASGSTFVKNAMGWYRQAPGKERELVAAITARGGSTFYADSVKGRFTISRDNAKNTVYLQMISLTPEDTSVYYCADNGPRTYRLKDDYWGQGTQVTVSS,high polyreactivity
12,QVQLVESGGGLVQAGGSLRLSCPAYGSTFGEYAMGWYRQKPGKERELVATITSAGSTYYADSVKGRFTISRDNAKNTVYLLMNSLKPEDTAVYYCAVDPISQGHMDYWGQGTQVTVSS,low polyreactivity
13,QVQLVESGGGLVQAGGSLRLSCSASGFIFWYNAMGWYRQAPGKERELVAAITTAGSTNYADSVKGRFTISRDNAKNTVYLQMNSLKPEDTAVFYCNKVQLRNRYPYRYGFGDVGYWGQGTQVTVSS,low polyreactivity
14,QVQLVESGGGLVQAGGSLRLSCSASGFTFFYYAMGWYRQAPGKERELVASISSGGSSTYYADSVKGRFTISRDNAKNTVYLQMNSLKPEDTAVYYFAATSRYRGSWYYYWGQGTQVTVSS,high polyreactivity
15,QVQLVESGGGLVQAGGSLRLSCSASGFTFRVNALGWYRQAPGKERELVAAITYSGGSTYYADSVKGRFTISRDNAKNTVYLQMNSLNPEDTAVYYCAAGYFFPRLRFRNYAYGYWGQGTQVTVST,high polyreactivity
16,QVQLVESGGGLVQAGGSLRLSCSASGFTFRWYTMGWYTQSPGNERELVAAINYSGGSTYYADSVKGRFTISRDNAKNTVYLQMNSLKPEDTAVYYCAAQIYFPGRRYDYWGQGTQVTVSS,high polyreactivity
17,QVQLVESGGGLVQAGGSLRLSCSASGFTSRKNAMGWYRQAPGKERELVAAITQSSGRTYYADSVKGRFTISRDNAKNTVYLQMNSLKPEDTAVYYCAARRGGEDDYWGQGTQVTVSS,low polyreactivity
18,QVQLVESGGGLVQAGGSLRLSCSASGIIFDSYVMGWYRQAPGKERELVAAISFRGGSTYYADSVKGRFTISRDNAKNTVYLQMNSLKPEDTAVYYCAAEGRGYTEYYWGQGTQVTVSS,high polyreactivity
19,QVQLVESGGGLVQAGGSLRLSCSASGIIFGGNAMGWYRQAPGKERELVAGISSRGGSTYYADSVKGRFTISRDNAKNTVYLQMNSLKPEDTAVYYCAAVSSRRPGYEYYYWGQGTQVTVSS,high polyreactivity
20,QVQLVESGGGLVQAGGSLRLSCSASGITFIYYMGWYIQAPGKERELVAAITWSGGSTYYADSVKGRFTISRDNAKNTVYLQMNSLKPEDTAVYYCAAVRRAEEYDYCGQGTQVTVSS,low polyreactivity
21,QVQLVESGGGLVQAGGSLRLSCSASGRIFSANAMGWYRQAPVKERELVATISTGGGRTYYADSVKGRFTISRDNAKNTVYLQMNSLKPEDTAVYYCNATRNYARVRYYYWGQGNQVTVSS,high polyreactivity

row,Sequence,polyreactivity (PSR sort gate)
1,QVQLVESGGGLVQAGGSLRLSCSASGRIFSPYAMGWYRQAPGKERELVAAISWRGSSTYYADSVKGRFTISPDNAKNTVYLQMNSLKPEDTAVYYCAAPSSKYWGQGTQVTVSS,low polyreactivity
2,QVQLVESGGGLVQAGGSLRLSCSASGRIFSTYAMGWYRQAPGKERELVAAINKIGGSTYYADSVKGRFTISRDNAKNTVYLQMNSLKPEDTAVYYCAADAPYYPVRRYYYWGQGTQVTVSS,low polyreactivity
3,QVQLVESGGGLVQAGGSLRLSCSASGRILYSYSMGWYRQAPGKEREFVAAIRRSGGSTYYADSVKGRFTISRDNAKNTVYLQMNSLKPEDTAVYYCAAGRRYSGSYDYWGQGTQVTVSS,high polyreactivity
4,QVQLVESGGGLVQAGGSLRLSCSASGRTFANYAMGWYRQAPGKERELVAAISSGGNTYYADSVKGRCTISRDNAKNTVYLQMNSLKPEDTAVYYCAAQPYYYFDEYTQYDYWGQGTQVTVSS,high polyreactivity
5,QVQLVESGGGLVQAGGSLRLSCSASGRTFATNAMGWYRQAPGKERELVAAISGSGGRTYYADSVKGRFTISRDIAKNTVYLQMNSLKPEDTAVYYCAAQKVPYRATNYYYWGQGTQVTVSS,high polyreactivity
6,QVQLVESGGGLVQAGGSLRLSCSASGRTFDVYAMGWYRQAPGKERELVATIRSDGSTTYADSVKGRFTISRDNAKNTVYLQMNSLKPEDTAVYFCAADFRSGFSSSTTPVQSDWGQGTQVTVSS,low polyreactivity
7,QVQLVESGGGLVQAGGSLRLSCSASGRTFGYNAMGRYRQEPGKERELVAAINWSGASTYYADSVKGRFTISRDNAKNTVYLQMNSLKPEDTAVYYCAADYSYIYGFDYWGQGTQVTVSS,low polyreactivity
8,QVQLVESGGGLVQAGGSLRLSCSASGRTFSSNAMGWYRKAPGKERELVAAITWSGGTTYYADSVKGRFTISRDNAKNTVYLQMNSQKPEDTAVYYCNAKRRGYTASVGYWGQGTQVTVSS,high polyreactivity
9,QVQLVESGGGLVQAGGSLRLSCSASGRTNWLNAMGLYRQAPGKERELVATISSSSGSTTYADSVKGRFTISRDNAKNTVYLQMNSLKPEDTAVYYCNVDDPFYSGVVEFDYWGQGTQVTVSS,low polyreactivity
10,QVQLVESGGGLVQAGGSLRLSCSASGSIFGFYAMGWYRQEPGKERELVAAIDSGDSTNYADSVKGRFTISRDNAKNTVYLQMNSLKPEDTAVYYCNARYTLFARYGYDYWGQGTQVTVSS,low polyreactivity
11,QVQLVESGGGLVQAGGSLRLSCSASGSIFGSYAMGWYRQAPGKERELVARINTRGGSTYYADSVKGRFTISRDNAKYTVYIQMNSLKPADTAVYYCAKERRASVVRYDYWGQGTQVTVSS,low polyreactivity
12,QVQLVESGGGLVQAGGSLRLSCSASGSIFPFNAMGWYRQAPGKERELVAAIRWSDGRTYYADSVKGRFTISRDNAKNTVYLQMNSLKPEDTAVYYCAAKSYWGQGTQVTVSS,high polyreactivity
13,QVQLVESGGGLVQAGGSLRLSCSASGSIFRYNAMGWYRQAPGKERELVAGITSGGSTNYADSVKGRFTISRDNAKNTVYLQMNSLKPEDTAVYYCATGTRSYYRWWRLMNYWGQGTQVTVSS,high polyreactivity
14,QVQLVESGGGLVQAGGSLRLSCSASGSIIYANAMGWYRPAPGKEREFVATITDSGAITYYADSVKGRFTISRDNAKNTVYLQMNSLKPEDTAVYYCNKDLVVYYVPTHDYDYWGQGTQVTVSS,low polyreactivity
15,QVQLVESGGGLVQAGGSLRLSCSASGSISHYAMGWYRQAPGKERELVAAISRRGGSTYYADSVKGRFTISRDNAKNTVYLQKNSLKPEDTAVYYCNKATSYFTVRGYDYCGQGTQVTVSS,high polyreactivity
16,QVQLVESGGGLVQAGGSLRLSCSASGSTFHRYAMGWYIQAPGKERELVARINGSGGSTYYADSVKGRFTISRDNAKNTVYLQMNSLKPEDSAVYYCAADGLYYTYGYDYWGQGTQVTVSS,low polyreactivity
17,QVQLVESGGGLVQAGGSLRLSCSASGSTFRWNAMGWYRQAPGKERELVASITSGGSTNYADSVKGRFTMSRDNAKNTVYLQLNSLKPEDTAVSYCNADVRRYSNYVWLYDYWGQGTQVTVSS,low polyreactivity
18,QVQLVESGGGLVQAGGSLRLSCSASGSTLAKYAMGWYRQAPGKERELVAAISWSGGRTYYADSVKGRFTISRDNAKNTVYLPMNSLKPEDTAVYYGAARALSSRTYHDDYWGQGTQVTVSS,high polyreactivity
19,QVQLVESGGGLVQAGGSLRLSCSATGFIFYRYAMGWYRQAPGKERELVAAISSSGGSTYYADSVKGRFTISRDNAKTTVSLQMNSLKPEDTAVYYCNKRPQQYRPGYDYWGQGTQVTVSS,high polyreactivity
20,QVQLVESGGGLVQAGGSLRLSCSAYGLILRTYGMGWYRQAPGKERELVAVISSGGSTYYADSVKGRFTISRDNEKNTVYLQMNSLKPEDTAVYYCAVRSSWYEGDYWGQGTQVTVSS,low polyreactivity
